In paper PMC6021390, “A promiscuous cytochrome P450 aromatic O-demethylase for lignin bioconversion” (Nature Communications, 2018):
Entries after “also recorded” stand apart in the source; their conditions may differ. Where two headings read alike, the source gives them in different places.

Tests used:
GcoA = target: T1, GcoA (Amycolatopsis sp., UniProt P0DPQ7); test: Determination of substrate dissociation constants with GcoA (UV/vis spectral shift titration; fluorescence quenching for vanillin); type: binding
T1 construct: GST (N, cleaved yes); made in house; host or cells: E. coli Rosetta 2 (DE3)
T1 sequence (P0DPQ7 1-407): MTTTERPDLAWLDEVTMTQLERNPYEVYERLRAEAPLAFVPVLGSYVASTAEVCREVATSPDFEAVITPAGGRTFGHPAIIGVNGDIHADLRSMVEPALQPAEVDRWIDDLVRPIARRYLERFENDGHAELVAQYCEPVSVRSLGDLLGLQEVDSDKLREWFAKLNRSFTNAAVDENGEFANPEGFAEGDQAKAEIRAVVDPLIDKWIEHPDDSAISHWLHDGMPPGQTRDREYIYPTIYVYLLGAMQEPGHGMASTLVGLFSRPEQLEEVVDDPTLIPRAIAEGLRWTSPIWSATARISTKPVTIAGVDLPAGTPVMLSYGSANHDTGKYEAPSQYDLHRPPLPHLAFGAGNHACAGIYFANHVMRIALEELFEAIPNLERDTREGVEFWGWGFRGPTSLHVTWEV
Method: A total of 0–60 µM of substrate analogs, in 0.25 or 0.5 µM aliquots, were titrated into a cuvette containing 1–6 µM GcoA in 25 mM HEPES, 50 mM NaCl, pH 7.5. The spectrum after each substrate addition was recorded, beginning with no substrate bound. The solution reached equilibrium before the next addition. A difference spectrum was made to illustrate the shift from a low-spin aquo-heme complex to the high-spin substrate-bound complex (spectral shift from 417 nm to 388 nm). […] The absorbance at 388 nm was plotted as a function of [substrate], yielding a quadratic curve that was fit to Eq. (7) to determine the KD.7 ΔAbsobs=ΔAbsmax/2EtL0+Et+KD-L0+Et+KD^2-4Et*L0. Where L0, Et, KD, and ΔAbsmax are the ligand concentrations, total protein (subunit) concentration, the equilibrium dissociation constant, and the maximum Abs388–417 nm, respectively. Reported values are the average of 2 or more measurements.
Since the UV/vis spectra of vanillin and heme overlap, fluorescence quenching was monitored to determine the KD. […] Fluorescence emission intensity was followed upon titration of vanillin (0–350 µM) after equilibrium had been established. The % fluorescence quenched, Eq. (8), was plotted as a function of vanillin and fit to Eq. (7) above, replacing ΔAbsmax with ΔFluorescencemax.8 %Fquenched=Fmax-Fintensity/Fmax×100%.

GcoAB [1] = target: T2, GcoAB (Amycolatopsis sp., UniProt P0DPQ7); details: for substrate classification with GcoAB: coupling of NADH consumption to demethylation; for binding or catalytic interaction with GcoA: screen of ten O-methylated aromatic compounds
T2 sequence (P0DPQ7 1-407): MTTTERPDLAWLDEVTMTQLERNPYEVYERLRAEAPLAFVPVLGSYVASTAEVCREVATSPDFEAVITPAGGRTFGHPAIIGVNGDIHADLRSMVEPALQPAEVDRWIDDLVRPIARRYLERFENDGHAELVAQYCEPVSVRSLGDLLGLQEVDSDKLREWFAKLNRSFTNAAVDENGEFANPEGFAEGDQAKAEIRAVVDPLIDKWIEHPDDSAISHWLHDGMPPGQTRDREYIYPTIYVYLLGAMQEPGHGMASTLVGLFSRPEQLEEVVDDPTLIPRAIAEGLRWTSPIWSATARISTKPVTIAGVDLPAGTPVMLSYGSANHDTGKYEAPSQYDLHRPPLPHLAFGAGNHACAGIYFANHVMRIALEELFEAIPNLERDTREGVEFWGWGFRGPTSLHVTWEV
T2 sequence (P0DPQ8 1-334 partner): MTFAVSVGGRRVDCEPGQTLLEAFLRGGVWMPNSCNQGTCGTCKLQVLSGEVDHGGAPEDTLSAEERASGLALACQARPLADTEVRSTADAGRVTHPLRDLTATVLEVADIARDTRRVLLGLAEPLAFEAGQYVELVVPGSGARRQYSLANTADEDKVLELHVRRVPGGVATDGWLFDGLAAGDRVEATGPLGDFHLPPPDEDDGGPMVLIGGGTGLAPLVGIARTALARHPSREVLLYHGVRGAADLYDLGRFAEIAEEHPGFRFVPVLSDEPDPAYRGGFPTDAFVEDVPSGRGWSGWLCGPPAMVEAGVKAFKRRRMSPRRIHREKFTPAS
Method: The demethylation of guaiacol and substrate analogs was continuously monitored under steady-state conditions. […] A total of 100 µg/mL catalase was added to each reaction to capture any H2O2 formed during the uncoupled reaction. […] A total of 20–300 µM guaiacol (preferred substrate) or an alternate substrate from a 2.5 mM stock dissolved in DMSO was added and the reaction was monitored via measurement of UV/vis spectra for several minutes. […] A plot of vi vs [guaiacol] was fit to Eq. (2) to obtain kcat, KM, and kcat/KM. For specific activity determination, the above method was used but with saturating (300 µM) guaiacol. […] Reported values are the average of ≥3 measurements and reported errors are standard deviations.
Reactions with vanillin were performed in the same manner described above.

GcoAB [2] = target: T2, GcoAB; test: HPLC quantification of demethylated aromatic product versus NADH consumed; type: biochemical, Amycolatopsis sp. ATCC 39116; parameters: GST (N, cleaved yes); made in house; host or cells: E. coli Rosetta 2 (DE3); details: saturating substrate, 300 μM NADH, 0.2 μM GcoAB
Method: Analyte analysis of samples was performed on an Agilent 1200 LC system (Agilent Technologies, Santa Clara, CA) equipped with a G1315A diode array detector (DAD). Each sample and standard was injected at a volume of 10 μL onto a Phenomenex Luna C18(2) column 5 μm, 4.6 × 150 mm column (Phenomenex, Torrance, CA). The column temperature was maintained at 30 °C and the buffers used to separate the analytes of interest was 0.05% acetic acid in water (A)/ acetonitrile (B). The separation was carried out using a gradient program of: (A) = 99% and (B) = 1% at time t = 0; (A) = 99% and (B) = 1% at time t = 5, (A) = 50% and (B) = 50% at t = 35 min; (A) = 1% and (B) = 99% at t = 35.01 min; (A) = 99% and (B) = 1% at t = 37.01 min; (A) = 99% and (B) = 1% at t = 47.00 min. The flow rate was held constant at 0.6 mL min^−1 resulting in a run time of 47 min. Calibration curve concentration for each analyte varied between the ranges of 2.5–200 µg L^−1. A DAD wavelength of 225 nm was used for analysis of the analytes of interest. […] A minimum of 3–5 calibration levels was used with an r^2 coefficient of 0.995 or better for each analyte and a check calibration standard (CCS) was analyzed every 10 samples to insure the integrity of the initial calibration.

GcoAB [3] = target: T2, GcoAB; test: Aldehyde product determination (tryptophan assay for formaldehyde, dehydrogenase assay for acetaldehyde) versus NADH consumed; type: biochemical, Amycolatopsis sp. ATCC 39116; parameters: GST (N, cleaved yes); made in house; host or cells: E. coli Rosetta 2 (DE3); details: formaldehyde (acetaldehyde for guaethol), saturating substrate, 300 μM NADH, 0.2 μM GcoAB
Excerpt: For the quantification of formaldehyde (demethylation) or acetaldehyde (de-ethylation) production, the reaction was monitored via UV/vis or fluorescence (in the case of vanillin) using the same set of conditions as outlined above for specific activity determination. After eight minutes, aliquots of the sample were removed and carried onto the respective aldehyde detection assay. For reactions that produced formaldehyde (e.g., all substrates except guaethol), a colorimetric tryptophan assay was used, described previously. Briefly, 200 µL of the reaction was quenched by adding 200 µL of 0.1% tryptophan solution in 50% ethanol, 200 µL 90% sulfuric acid and 40 µL of 1% FeCl3. The solution was then incubated in a heating block for 90 min at 70 °C. After cooling, the absorbance was read at 575 nm and the [formaldehyde] calculated by comparing to a standard curve made with 0–320 µM formaldehyde. A reaction with just the assay components was treated in the same manner as the reaction samples and used as a baseline. Control reactions included everything but GcoA/B, catalase, and substrate. Reported values are the average of ≥3 measurements.
[Acetaldehyde] produced during the dealkylation of guaethol was also determined by using a colorimetric assay and a generated acetaldehyde standard curve. A kit from BioAssays was used. Briefly, 20 µL of the reacted sample was transferred to a 96-well plate and 80 µL of the working reagent, consisting of NAD/MTT and aldehyde dehydrogenase, was added. The reaction was incubated for 30 min at room temperature and the absorbance read at 565 nm. Aldehyde dehydrogenase and NAD react with acetaldehyde to produce acetic acid and NADH. […] Control reactions included samples without substrate and/or aldehyde dehydrogenase. Reported values are the average of ≥3 measurements.

LigM = system: LigM; parameters: method as in ref 35 (a number printed in a supplementary file, which may have a reference list of its own: not looked up in the article's list); details: 0.076 μM LigM, 5 mM H4-folate, pH 8.0, 30 °C, cited from earlier work
[4] = substrate: CCOc1ccccc1O; test: purified protein, by the assay type; details: other: 0.2 μM GcoAB, 300 μM NADH, pH 7.5, 25 °C, air
[5] = substrate: COc1cccc(O)c1O; test: purified protein, by the assay type; details: other: 0.2 μM GcoAB, 300 μM NADH, pH 7.5, 25 °C, air
[6] = substrate: COc1ccccc1; test: purified protein, by the assay type; details: other: 0.2 μM GcoAB, 300 μM NADH, pH 7.5, 25 °C, air
[7] = substrate: COc1ccccc1C; test: purified protein, by the assay type; details: other: 0.2 μM GcoAB, 300 μM NADH, pH 7.5, 25 °C, air
[8] = substrate: COc1ccccc1O; test: purified protein, by the assay type; details: other: 0.2 μM GcoAB, 300 μM NADH, pH 7.5, 25 °C, air

With `COc1cccc(OC)c1O` [Syringol] the Kd (GcoA; 1–6 μM GcoA, 25 °C, 25 mM HEPES, 50 mM NaCl, pH 7.5, read-out: Compound KD) was 2.8 ± 0.4 µM, the “substrate classification with GcoAB” value (GcoAB [1]) was “partial substrate, partial uncoupler” and the “Demethylated product: amount produced per NADH consumed” value (GcoAB [2]) was 0.21 ± 0.002.

For `COc1cc(C=O)ccc1O` [Vanillin], the Kd (GcoA) was 37 ± 3 µM, the “substrate classification with GcoAB” value (GcoAB [1]) was “partial substrate, partial uncoupler” and the “Aldehyde produced per NADH consumed” value (GcoAB [3]) was 0.40 ± 0.04. For the same molecule, the “Aldehyde produced per NADH consumed” value (GcoAB [3]; listed as vanillin) was “less than stoichiometric amounts of formaldehyde” and the “Demethylated product: amount produced per NADH consumed” value (GcoAB [2]) was 0.20 ± 0.01.

With `COc1cc(/C=C/C(=O)O)ccc1O` [ferulate] the “binding or catalytic interaction with GcoA” value (GcoAB [1]) was “no detectable binding or catalytic interaction; also recorded: preclude binding and/or demethylation”.

In the case of `COc1cc(C(=O)O)ccc1O` [vanillate], the “binding or catalytic interaction with GcoA” value (GcoAB [1]) is listed as “no detectable binding or catalytic interaction; also recorded: preclude binding and/or demethylation”, the Km (LigM) is listed as 630 ± 80 µM and the kcat (LigM; vanillate 0.1-5 mM, 100 mM Tris, air) is listed as 5.8 ± 0.25 s⁻¹.

For `COc1ccccc1OC` [veratrole], the “substrate classification with GcoAB” value (GcoAB [1]) was “non-substrate/non-binder” and the “binding or catalytic interaction with GcoA” value (GcoAB [1]) was “no detectable binding or catalytic interaction”.

B1: GcoAB (Amycolatopsis sp. ATCC 39116) (protein)
chain: MTTTERPDLAWLDEVTMTQLERNPYEVYERLRAEAPLAFVPVLGSYVASTAEVCREVATSPDFEAVITPAGGRTFGHPAIIGVNGDIHADLRSMVEPALQPAEVDRWIDDLVRPIARRYLERFENDGHAELVAQYCEPVSVRSLGDLLGLQEVDSDKLREWFAKLNRSFTNAAVDENGEFANPEGFAEGDQAKAEIRAVVDPLIDKWIEHPDDSAISHWLHDGMPPGQTRDREYIYPTIYVYLLGAMQEPGHGMASTLVGLFSRPEQLEEVVDDPTLIPRAIAEGLRWTSPIWSATARISTKPVTIAGVDLPAGTPVMLSYGSANHDTGKYEAPSQYDLHRPPLPHLAFGAGNHACAGIYFANHVMRIALEELFEAIPNLERDTREGVEFWGWGFRGPTSLHVTWEV
B1 gave a Km [4] of 15 ± 4 µM, a kcat [4] of 1.4 ± 0.09 s⁻¹ and a kcat/Km [4] of 100000 ± 20000 M⁻¹ s⁻¹. For the same molecule, the Km [5] was 30 ± 3 µM, the kcat [5] was 2.1 ± 0.05 s⁻¹ and the kcat/Km [5] was 75000 ± 7000 M⁻¹ s⁻¹. The Km [6] was 43 ± 4 µM, the kcat [6] was 3.5 ± 0.2 s⁻¹ and the kcat/Km [6] was 82000 ± 8000 M⁻¹ s⁻¹. For the same molecule, the Km [7] was 27 ± 3 µM, the kcat [7] was 4.6 ± 0.1 s⁻¹ and the kcat/Km [7] was 170000 ± 20000 M⁻¹ s⁻¹. It also gave a Km [8] of 60 ± 10 µM, a kcat [8] of 6.8 ± 0.5 s⁻¹ and a kcat/Km [8] of 110000 ± 20000 M⁻¹ s⁻¹.
